Molecular target: human KLB&FGFR1c complex on cells (human, UniProt Q86Z14 1-1044; P11362 22-822)
Experiment: cell-based or functional assay

Chain of human KLB&FGFR1c complex on cells (P11362 22-822, one chain of several): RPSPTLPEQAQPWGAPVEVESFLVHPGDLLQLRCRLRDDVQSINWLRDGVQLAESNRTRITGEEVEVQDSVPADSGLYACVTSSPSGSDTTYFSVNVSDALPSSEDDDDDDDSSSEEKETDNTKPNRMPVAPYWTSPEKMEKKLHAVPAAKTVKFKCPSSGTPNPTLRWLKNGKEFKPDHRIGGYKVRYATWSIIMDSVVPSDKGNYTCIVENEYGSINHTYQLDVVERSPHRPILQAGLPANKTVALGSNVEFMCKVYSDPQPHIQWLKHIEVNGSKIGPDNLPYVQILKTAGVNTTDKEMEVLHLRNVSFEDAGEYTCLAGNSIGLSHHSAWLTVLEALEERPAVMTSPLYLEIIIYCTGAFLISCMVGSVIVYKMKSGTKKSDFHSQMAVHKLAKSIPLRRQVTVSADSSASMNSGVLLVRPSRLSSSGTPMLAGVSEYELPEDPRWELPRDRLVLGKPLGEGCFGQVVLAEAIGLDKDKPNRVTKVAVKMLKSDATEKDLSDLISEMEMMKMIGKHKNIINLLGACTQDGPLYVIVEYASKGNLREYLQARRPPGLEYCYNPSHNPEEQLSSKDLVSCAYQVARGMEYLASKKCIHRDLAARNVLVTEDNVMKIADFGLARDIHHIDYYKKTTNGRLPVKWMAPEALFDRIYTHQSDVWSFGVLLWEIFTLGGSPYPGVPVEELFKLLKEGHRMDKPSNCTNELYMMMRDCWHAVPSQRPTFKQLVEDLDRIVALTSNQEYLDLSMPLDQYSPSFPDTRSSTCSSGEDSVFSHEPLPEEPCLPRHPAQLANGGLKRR

Activation fold, GAL4-Elk1 luciferase reporter in CHOK1-hKLB&hFGFR1c cells: 14.3 fold
EC50 (nM), GAL4-Elk1 luciferase reporter in CHOK1-hKLB&hFGFR1c cells: 0.19 nM
B1: hAb99-13 (antibody, human IgG1, kappa, L234A L235A, V domains shown)
VH: EVQLVQSGAEVKKPGASVKVSCKASGYTFTNYGINWVRQAPGQRLEWMGYIYIGNVDIEYNAKFKGRVTITSDTSASTAYMELSSLRSEDTAVYYCARGRGLGHFDVWGQGTTVTVSS
VL: DIQMTQSPSSLSASVGDRVTITCRASKSISKFLAWFQQKPGKTNKLLIYSGSTLQSGVPSRFSGSGSGTDFTLTISSLQPEDFATYYCQQHNEYPWTFGGGTKVEIKR
notes: human IgG1 (L234A, L235A) / kappa
